The results in this text go back to patent US20130324474A1 (Eli Lilly, published 2013).

The target of assay [1] is T1, Recombinant Rat GFRα-1/GDNF Rα-1 Fc Chimera (rat, UniProt Q62997 25-445).
T1 construct: Purchased Fc chimera; not shown: Fc part of a purchased Fc chimera
T1 sequence (looked up): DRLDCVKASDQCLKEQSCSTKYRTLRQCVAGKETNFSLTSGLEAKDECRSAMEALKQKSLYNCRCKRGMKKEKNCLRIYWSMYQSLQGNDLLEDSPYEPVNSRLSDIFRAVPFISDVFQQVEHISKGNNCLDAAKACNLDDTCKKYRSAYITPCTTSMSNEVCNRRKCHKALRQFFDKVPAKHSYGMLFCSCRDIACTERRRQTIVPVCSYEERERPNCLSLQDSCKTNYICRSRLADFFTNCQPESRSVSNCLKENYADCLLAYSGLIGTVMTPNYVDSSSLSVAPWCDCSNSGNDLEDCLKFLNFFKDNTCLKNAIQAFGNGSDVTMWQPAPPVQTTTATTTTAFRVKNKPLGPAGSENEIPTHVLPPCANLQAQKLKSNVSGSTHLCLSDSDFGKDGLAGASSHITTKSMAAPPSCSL
The assay is described as follows: SPR (Biacore 2000), rat GFRα1-Fc captured on protein A, GDNFv as analyte, 1:1 Langmuir, 25 C. As to the method: A Biacore® 2000 instrument is used to measure the binding kinetics of GDNFv to human and rat GDNF family receptors (GFRα1 and GFRα2). Measurements are performed at 25° C. Samples are dissolved in HBS-EP buffer (150 mM sodium chloride, 3 mM EDTA, 0.005% (w/v) surfactant P-20, pH 7.4). Protein A, Staphylococcus aureus is immobilized on flow cells 1 to 4 of a CM4 sensor chip (GE Healthcare #BR-1005-39) at a level of ˜200 response units (RUs) using amine coupling chemistry to capture GFR Fc chimera (Recombinant Human GFRα-1/GDNF Rα-1 Fc Chimera; Recombinant Human GFRα-2/GDNF Rα-2 Fc Chimera; Recombinant Rat GFRα-1/GDNF Rα-1 Fc Chimera; Recombinant Mouse GFRα-2/GDNF Rα-2 Fc Chimera).
Binding is evaluated using multiple cycles. Each cycle consists of the following steps: 1) injection of about 10 μL of GFR at a concentration of ˜1.0 μg/mL and a flow rate of 10 μL/min., aiming at a capture of 120-150 RUs; 2) injection of 250 μL of GDNFv at a flow rate of 50 μL/min., in a final concentration rage between 10 nM and 0.04 nM followed by […]. for dissociation; and 3) regeneration using about 30 μL of 10 mM glycine hydrochloride, pH 1.5. Association and dissociation rates for each cycle are evaluated using a “1:1 (Langmuir) binding” model in the BIAevaluation software, version 4.1.
A general note: SPR reads the build-up and loss of mass on a sensor chip optically.

The target of assay [2] is T2, Recombinant Human GFRα-1/GDNF Rα-1 Fc Chimera (human, UniProt P56159 25-429).
T2 construct: Purchased Fc chimera; It was captured on protein A in Biacore and coated on the plate in ELISA; also called GFRα1-Fc; recombinant human GFRα1-Fc chimera, carrier-free; not shown: Fc part of a purchased Fc chimera
T2 sequence (looked up): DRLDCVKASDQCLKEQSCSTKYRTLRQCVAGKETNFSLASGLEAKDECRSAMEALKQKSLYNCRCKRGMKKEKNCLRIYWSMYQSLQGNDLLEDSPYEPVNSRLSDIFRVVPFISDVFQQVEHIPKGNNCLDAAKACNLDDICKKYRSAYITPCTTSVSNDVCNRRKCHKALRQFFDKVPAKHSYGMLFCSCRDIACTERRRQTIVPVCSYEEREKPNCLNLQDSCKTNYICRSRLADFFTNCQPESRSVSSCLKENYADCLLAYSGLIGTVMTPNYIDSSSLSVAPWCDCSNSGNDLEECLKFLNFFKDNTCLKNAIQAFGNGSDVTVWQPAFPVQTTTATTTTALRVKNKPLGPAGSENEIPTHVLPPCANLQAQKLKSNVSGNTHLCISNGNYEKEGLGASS
In words: ELISA, plate-bound human GFRα1-Fc; 4 C sample. As to the method:
GDNF wild type and variants are tested in an ELISA assay, in which binding of the GDNF proteins to the plate-bound receptor (GFRα1) is measured. A “no GDNF” condition and/or an “irrelevant protein” condition are used as negative controls.
Each well of a 96-well plate (Greiner 655081 Immunobind ELISA plates) is coated with 70 μl of human GFRα1 (recombinant human GFRα1-Fc chimera, carrier-free) at 1 μg/ml in carbonate buffer, pH 9.6. If an irrelevant receptor is coated, it is an irrelevant Fc chimera and is coated at the same concentration as GFRα1. The plates are sealed and incubated at 4° C. overnight. The wells are aspirated and washed twice with washing buffer (20 mM Tris (hydroxymethyl) aminomethane, pH 7.4, 0.15 M NaCl, 0.1% Tween-20), using an automatic plate washer. The plates are blocked with 200 μl blocking buffer per well (3% Carnation Instant milk in the above washing buffer) for at least 1 hour at room temperature. Plates are washed twice with washing buffer.
GDNF proteins are serially diluted into blocking buffer at an appropriate concentration range, typically beginning at 5 μg/ml and serially diluting 1:10. A no GDNF control is used, which consists of blocking buffer alone. 50 μl of each GDNF solution is added to the GFRα1 coated wells in triplicate. The plates are incubated for 1.5 hours at room temperature. The wells are then washed 3 times with washing buffer.
Background: An ELISA detects its analyte on a solid surface through an enzyme-linked reagent.

For assay [3], the target named is T2, Recombinant Human GFRα-1/GDNF Rα-1 Fc …. In words: Biacore (SPR), GFRα-1; 4 C sample of the 4-week stability comparison.
For a further assay, the target named is human c-Ret (human, UniProt P07949 29-1114, phosphorylation at Y1016 is the readout). The assay is described as follows: cell-based or functional assay.
human c-Ret, sequence (P07949 29-1114): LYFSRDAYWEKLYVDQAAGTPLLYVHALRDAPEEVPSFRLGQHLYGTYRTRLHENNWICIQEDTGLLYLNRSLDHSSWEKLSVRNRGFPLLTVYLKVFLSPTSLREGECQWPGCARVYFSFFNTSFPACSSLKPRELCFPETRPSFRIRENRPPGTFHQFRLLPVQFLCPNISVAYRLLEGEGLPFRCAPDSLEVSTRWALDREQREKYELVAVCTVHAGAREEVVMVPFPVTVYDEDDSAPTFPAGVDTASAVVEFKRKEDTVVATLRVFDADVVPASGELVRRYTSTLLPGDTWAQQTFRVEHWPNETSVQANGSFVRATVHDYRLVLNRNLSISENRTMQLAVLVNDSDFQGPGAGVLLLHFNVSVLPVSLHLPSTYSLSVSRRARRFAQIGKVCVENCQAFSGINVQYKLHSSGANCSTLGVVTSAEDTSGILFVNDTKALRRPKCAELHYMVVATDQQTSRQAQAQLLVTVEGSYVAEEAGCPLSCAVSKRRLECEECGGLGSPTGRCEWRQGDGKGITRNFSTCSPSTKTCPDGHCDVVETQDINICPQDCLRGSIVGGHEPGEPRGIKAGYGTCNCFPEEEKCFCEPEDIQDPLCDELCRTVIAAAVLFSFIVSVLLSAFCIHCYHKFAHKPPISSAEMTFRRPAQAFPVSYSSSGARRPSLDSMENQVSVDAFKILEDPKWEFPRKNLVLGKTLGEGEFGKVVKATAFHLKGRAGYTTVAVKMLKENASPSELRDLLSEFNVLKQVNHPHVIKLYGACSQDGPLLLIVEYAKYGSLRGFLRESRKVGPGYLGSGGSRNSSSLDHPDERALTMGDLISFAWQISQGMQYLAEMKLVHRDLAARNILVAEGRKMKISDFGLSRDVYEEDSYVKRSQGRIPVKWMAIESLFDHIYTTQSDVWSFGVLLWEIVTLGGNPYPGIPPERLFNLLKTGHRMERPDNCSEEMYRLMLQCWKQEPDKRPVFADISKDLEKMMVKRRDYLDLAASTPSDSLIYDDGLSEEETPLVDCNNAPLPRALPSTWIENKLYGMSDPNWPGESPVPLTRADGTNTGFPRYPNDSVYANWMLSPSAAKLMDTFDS

B1: CHO-Δ31-GDNF (SEQ ID NO: 8) (ligand)
chain: RGQRGKNRGCVLTAIHLNVTDLGLGYETKEELIFRYCSGSCDAAETTYDKILKNLSRNRRLVSDKVGQACCRPIAFDDDLSFLDDNLVYHILRKHSAKRCGCI
modifications: N-glycosylated at N49 (numbering of mature GDNF)
notes: Expressed in CHO cells; also called CHO-Δ31-GDNFv; WT CHO Δ31-GDNFv
With B1, in assay [1], the Kd (usually the constant that tells how readily two partners part at equilibrium) came out at 0.044 nM; the dissociation rate constant (koff) (in general, the first-order rate constant of dissociation) was found to be 0.00024 s⁻¹; the kon (in general, a measure of how fast the partners come together) came out at 5.6e+06 M⁻¹ s⁻¹. Moreover, in assay [2], the EC50 (in general, the concentration needed to bring the measured effect to its halfway point) turned out to be 0.6 nM. The dissociation constant Kd in assay [3] stood at 0.029 nM. In the assay with human c-Ret, the “c-Ret phosphorylation at Y1016, EC50” value lay within 0.008 to 0.015 µg/mL.

B2: CHO-Δ31-N38Q-D95E-GDNF (SEQ ID NO: 9) (ligand)
chain: RGQRGKQRGCVLTAIHLNVTDLGLGYETKEELIFRYCSGSCDAAETTYDKILKNLSRNRRLVSEKVGQACCRPIAFDDDLSFLDDNLVYHILRKHSAKRCGCI
modifications: N-glycosylated at N49 (numbering of mature GDNF)
notes: Expressed in CHO cells; also called CHO-Δ31-N38Q-D95E-GDNFv; GDNF variant 2
Turning to B2, in assay [1], the Kd is 0.02 nM, the koff worked out at 0.00019 s⁻¹ and the on-rate (kon) came out at 9.4e+06 M⁻¹ s⁻¹. Further, in assay [2], the 50% effective concentration (EC50) turned out to be 0.8 nM. The Kd in assay [3] was 0.03 nM. Also, the “c-Ret phosphorylation at Y1016, EC50” value in the assay with human c-Ret lay within 0.008 to 0.015 µg/mL.
